Test results published in IntAct's records for PubMed 16431923.

Biological target: ccnd1_human CCND1 (UniProt P24385)
Sequence (P24385 whole entry): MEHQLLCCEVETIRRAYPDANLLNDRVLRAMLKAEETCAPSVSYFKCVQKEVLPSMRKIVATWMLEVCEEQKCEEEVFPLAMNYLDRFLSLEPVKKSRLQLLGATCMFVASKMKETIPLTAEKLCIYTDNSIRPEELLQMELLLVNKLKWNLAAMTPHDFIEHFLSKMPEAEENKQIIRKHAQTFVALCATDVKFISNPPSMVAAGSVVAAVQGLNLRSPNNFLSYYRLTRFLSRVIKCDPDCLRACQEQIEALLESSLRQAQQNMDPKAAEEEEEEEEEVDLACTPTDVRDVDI

Question: How did the “effect of a mutation on the interaction” value turn out when “Nucleoprotein (Human SARS coronavirus), P59595 S207A;P208A;A209L;R210G” was run?
Answer: The value was “decreasing interaction strength”.
